Measured values from patent US20160272683A1 (Novo Nordisk, published 2016).
Numbered stars: 1 amine (or outer) side, 2 acyl side, 3 side chain; on linkers, the order of the positions; unused ones are H or OH. * marks the point of attachment. C20 diacid = O=C(O)CCCCCCCCCCCCCCCCCCC(=O)*; γGlu = O=C(O)[C@H](CCC(=O)[*:2])N[*:1]; AEEA = NCCOCCOCC(=O)O

T1: human amylin 3(a) receptor (human calcitonin receptor co-expressed with RAMP-3) on BHK570/CRE-luc cells (human, UniProt P30988 25-474; O60896 24-148)
T1 sequence (looked up) 1: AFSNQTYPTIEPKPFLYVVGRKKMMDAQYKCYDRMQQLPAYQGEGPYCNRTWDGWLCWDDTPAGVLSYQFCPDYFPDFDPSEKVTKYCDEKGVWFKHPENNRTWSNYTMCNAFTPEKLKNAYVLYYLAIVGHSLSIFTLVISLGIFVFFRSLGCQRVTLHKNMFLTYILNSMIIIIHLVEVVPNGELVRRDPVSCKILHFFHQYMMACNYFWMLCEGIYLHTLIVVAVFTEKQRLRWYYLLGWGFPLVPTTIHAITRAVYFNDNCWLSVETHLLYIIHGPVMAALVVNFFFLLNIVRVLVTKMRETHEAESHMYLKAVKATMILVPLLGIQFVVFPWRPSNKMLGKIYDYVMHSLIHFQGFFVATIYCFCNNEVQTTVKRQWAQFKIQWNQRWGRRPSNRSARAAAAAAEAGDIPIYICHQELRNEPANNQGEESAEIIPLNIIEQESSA
T1 sequence (looked up) 2: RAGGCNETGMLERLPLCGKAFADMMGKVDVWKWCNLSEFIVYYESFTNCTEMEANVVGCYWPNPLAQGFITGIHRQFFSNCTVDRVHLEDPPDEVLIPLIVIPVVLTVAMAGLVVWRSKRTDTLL

T2: human calcitonin receptor on BHK570/CRE-luc cells (human, UniProt P30988 25-474)
T2 sequence (looked up): T1 sequence (looked up) 1

B1: [N-terminal(C20 diacid-gGlu), des1, 4G, 9V, 15Q, 21Q, 23Y, 30S, 31Q, 32T, 33Y]mimylin (peptide)
peptide: {C20 diacid-γGlu}-ASGLSTAVLGRLSQELHELQTYPRTETGSQTY-NH2
SMILES: CC(C)C[C@H](NC(=O)CNC(=O)[C@H](CO)NC(=O)[C@H](C)NC(=O)CC[C@H](NC(=O)CCCCCCCCCCCCCCCCCCC(=O)O)C(=O)O)C(=O)N[C@@H](CO)C(=O)N[C@H](C(=O)N[C@@H](C)C(=O)N[C@H](C(=O)N[C@@H](CC(C)C)C(=O)NCC(=O)N[C@@H](CCCNC(=N)N)C(=O)N[C@@H](CC(C)C)C(=O)N[C@@H](CO)C(=O)N[C@@H](CCC(N)=O)C(=O)N[C@@H](CCC(=O)O)C(=O)N[C@@H](CC(C)C)C(=O)N[C@@H](Cc1c[nH]cn1)C(=O)N[C@@H](CCC(=O)O)C(=O)N[C@@H](CC(C)C)C(=O)N[C@@H](CCC(N)=O)C(=O)N[C@H](C(=O)N[C@@H](Cc1ccc(O)cc1)C(=O)N1CCC[C@H]1C(=O)N[C@@H](CCCNC(=N)N)C(=O)N[C@H](C(=O)N[C@@H](CCC(=O)O)C(=O)N[C@H](C(=O)NCC(=O)N[C@@H](CO)C(=O)N[C@@H](CCC(N)=O)C(=O)N[C@H](C(=O)N[C@@H](Cc1ccc(O)cc1)C(N)=O)[C@@H](C)O)[C@@H](C)O)[C@@H](C)O)[C@@H](C)O)C(C)C)[C@@H](C)O
B2: [N-terminal(C20 diacid-gGlu), des1, 9V, 15Q, 21Q, 23Y, 30S, 31G, 32T, 33Y]mimylin (peptide)
peptide: {C20 diacid-γGlu}-ASELSTAVLGRLSQELHELQTYPRTETGSGTY-NH2
SMILES: CC(C)C[C@H](NC(=O)[C@H](CCCNC(=N)N)NC(=O)CNC(=O)[C@H](CC(C)C)NC(=O)[C@@H](NC(=O)[C@H](C)NC(=O)[C@@H](NC(=O)[C@H](CO)NC(=O)[C@H](CC(C)C)NC(=O)[C@H](CCC(=O)O)NC(=O)[C@H](CO)NC(=O)[C@H](C)NC(=O)CC[C@H](NC(=O)CCCCCCCCCCCCCCCCCCC(=O)O)C(=O)O)[C@@H](C)O)C(C)C)C(=O)N[C@@H](CO)C(=O)N[C@@H](CCC(N)=O)C(=O)N[C@@H](CCC(=O)O)C(=O)N[C@@H](CC(C)C)C(=O)N[C@@H](Cc1c[nH]cn1)C(=O)N[C@@H](CCC(=O)O)C(=O)N[C@@H](CC(C)C)C(=O)N[C@@H](CCC(N)=O)C(=O)N[C@H](C(=O)N[C@@H](Cc1ccc(O)cc1)C(=O)N1CCC[C@H]1C(=O)N[C@@H](CCCNC(=N)N)C(=O)N[C@H](C(=O)N[C@@H](CCC(=O)O)C(=O)N[C@H](C(=O)NCC(=O)N[C@@H](CO)C(=O)NCC(=O)N[C@H](C(=O)N[C@@H](Cc1ccc(O)cc1)C(N)=O)[C@@H](C)O)[C@@H](C)O)[C@@H](C)O)[C@@H](C)O
B3: [N-terminal(C20 diacid-gGlu), des1, 4Q, 9V, 15Q, 21Q, 23Y, 30S, 31Q, 32T, 33Y]mimylin (peptide)
peptide: {C20 diacid-γGlu}-ASQLSTAVLGRLSQELHELQTYPRTETGSQTY-NH2
SMILES: CC(C)C[C@H](NC(=O)[C@H](CCCNC(=N)N)NC(=O)CNC(=O)[C@H](CC(C)C)NC(=O)[C@@H](NC(=O)[C@H](C)NC(=O)[C@@H](NC(=O)[C@H](CO)NC(=O)[C@H](CC(C)C)NC(=O)[C@H](CCC(N)=O)NC(=O)[C@H](CO)NC(=O)[C@H](C)NC(=O)CC[C@H](NC(=O)CCCCCCCCCCCCCCCCCCC(=O)O)C(=O)O)[C@@H](C)O)C(C)C)C(=O)N[C@@H](CO)C(=O)N[C@@H](CCC(N)=O)C(=O)N[C@@H](CCC(=O)O)C(=O)N[C@@H](CC(C)C)C(=O)N[C@@H](Cc1c[nH]cn1)C(=O)N[C@@H](CCC(=O)O)C(=O)N[C@@H](CC(C)C)C(=O)N[C@@H](CCC(N)=O)C(=O)N[C@H](C(=O)N[C@@H](Cc1ccc(O)cc1)C(=O)N1CCC[C@H]1C(=O)N[C@@H](CCCNC(=N)N)C(=O)N[C@H](C(=O)N[C@@H](CCC(=O)O)C(=O)N[C@H](C(=O)NCC(=O)N[C@@H](CO)C(=O)N[C@@H](CCC(N)=O)C(=O)N[C@H](C(=O)N[C@@H](Cc1ccc(O)cc1)C(N)=O)[C@@H](C)O)[C@@H](C)O)[C@@H](C)O)[C@@H](C)O
B4: [N-terminal(C20 diacid-gGlu), 4Q, 9V, 15Q, 21Q, 23Y, 27G, 30S, 31G, 32T, 33Y]mimylin (peptide)
peptide: {C20 diacid-γGlu}-EASQLSTAVLGRLSQELHELQTYPRTGTGSGTY-NH2
SMILES: CC(C)C[C@H](NC(=O)[C@H](CCCNC(=N)N)NC(=O)CNC(=O)[C@H](CC(C)C)NC(=O)[C@@H](NC(=O)[C@H](C)NC(=O)[C@@H](NC(=O)[C@H](CO)NC(=O)[C@H](CC(C)C)NC(=O)[C@H](CCC(N)=O)NC(=O)[C@H](CO)NC(=O)[C@H](C)NC(=O)[C@H](CCC(=O)O)NC(=O)CC[C@H](NC(=O)CCCCCCCCCCCCCCCCCCC(=O)O)C(=O)O)[C@@H](C)O)C(C)C)C(=O)N[C@@H](CO)C(=O)N[C@@H](CCC(N)=O)C(=O)N[C@@H](CCC(=O)O)C(=O)N[C@@H](CC(C)C)C(=O)N[C@@H](Cc1c[nH]cn1)C(=O)N[C@@H](CCC(=O)O)C(=O)N[C@@H](CC(C)C)C(=O)N[C@@H](CCC(N)=O)C(=O)N[C@H](C(=O)N[C@@H](Cc1ccc(O)cc1)C(=O)N1CCC[C@H]1C(=O)N[C@@H](CCCNC(=N)N)C(=O)N[C@H](C(=O)NCC(=O)N[C@H](C(=O)NCC(=O)N[C@@H](CO)C(=O)NCC(=O)N[C@H](C(=O)N[C@@H](Cc1ccc(O)cc1)C(N)=O)[C@@H](C)O)[C@@H](C)O)[C@@H](C)O)[C@@H](C)O
B5: [N-terminal(C20 diacid-gGlu-2xOEG), des1, 4G, 9V, 15Q, 21Q, 23Y, 30S, 31G, 32T, 33Y]mimylin (peptide)
peptide: {C20 diacid-γGlu-AEEA-AEEA}-ASGLSTAVLGRLSQELHELQTYPRTETGSGTY-NH2
SMILES: CC(C)C[C@H](NC(=O)CNC(=O)[C@H](CO)NC(=O)[C@H](C)NC(=O)COCCOCCNC(=O)COCCOCCNC(=O)CC[C@H](NC(=O)CCCCCCCCCCCCCCCCCCC(=O)O)C(=O)O)C(=O)N[C@@H](CO)C(=O)N[C@H](C(=O)N[C@@H](C)C(=O)N[C@H](C(=O)N[C@@H](CC(C)C)C(=O)NCC(=O)N[C@@H](CCCNC(=N)N)C(=O)N[C@@H](CC(C)C)C(=O)N[C@@H](CO)C(=O)N[C@@H](CCC(N)=O)C(=O)N[C@@H](CCC(=O)O)C(=O)N[C@@H](CC(C)C)C(=O)N[C@@H](Cc1c[nH]cn1)C(=O)N[C@@H](CCC(=O)O)C(=O)N[C@@H](CC(C)C)C(=O)N[C@@H](CCC(N)=O)C(=O)N[C@H](C(=O)N[C@@H](Cc1ccc(O)cc1)C(=O)N1CCC[C@H]1C(=O)N[C@@H](CCCNC(=N)N)C(=O)N[C@H](C(=O)N[C@@H](CCC(=O)O)C(=O)N[C@H](C(=O)NCC(=O)N[C@@H](CO)C(=O)NCC(=O)N[C@H](C(=O)N[C@@H](Cc1ccc(O)cc1)C(N)=O)[C@@H](C)O)[C@@H](C)O)[C@@H](C)O)[C@@H](C)O)C(C)C)[C@@H](C)O
B6: [N-terminal(C20 diacid-gGlu), des1, 4G, 9V, 15Q, 21Q, 23Y, 30S, 31G, 32T, 33Y]mimylin (peptide)
peptide: {C20 diacid-γGlu}-ASGLSTAVLGRLSQELHELQTYPRTETGSGTY-NH2
SMILES: CC(C)C[C@H](NC(=O)CNC(=O)[C@H](CO)NC(=O)[C@H](C)NC(=O)CC[C@H](NC(=O)CCCCCCCCCCCCCCCCCCC(=O)O)C(=O)O)C(=O)N[C@@H](CO)C(=O)N[C@H](C(=O)N[C@@H](C)C(=O)N[C@H](C(=O)N[C@@H](CC(C)C)C(=O)NCC(=O)N[C@@H](CCCNC(=N)N)C(=O)N[C@@H](CC(C)C)C(=O)N[C@@H](CO)C(=O)N[C@@H](CCC(N)=O)C(=O)N[C@@H](CCC(=O)O)C(=O)N[C@@H](CC(C)C)C(=O)N[C@@H](Cc1c[nH]cn1)C(=O)N[C@@H](CCC(=O)O)C(=O)N[C@@H](CC(C)C)C(=O)N[C@@H](CCC(N)=O)C(=O)N[C@H](C(=O)N[C@@H](Cc1ccc(O)cc1)C(=O)N1CCC[C@H]1C(=O)N[C@@H](CCCNC(=N)N)C(=O)N[C@H](C(=O)N[C@@H](CCC(=O)O)C(=O)N[C@H](C(=O)NCC(=O)N[C@@H](CO)C(=O)NCC(=O)N[C@H](C(=O)N[C@@H](Cc1ccc(O)cc1)C(N)=O)[C@@H](C)O)[C@@H](C)O)[C@@H](C)O)[C@@H](C)O)C(C)C)[C@@H](C)O
B7: [N-terminal(C20 diacid-gGlu), des1, 4G, 15Q, 21Q, 23Y, 25H, 30S, 31G, 32T, 33Y]mimylin (peptide)
peptide: {C20 diacid-γGlu}-ASGLSTAALGRLSQELHELQTYPHTETGSGTY-NH2
SMILES: CC(C)C[C@H](NC(=O)CNC(=O)[C@H](CO)NC(=O)[C@H](C)NC(=O)CC[C@H](NC(=O)CCCCCCCCCCCCCCCCCCC(=O)O)C(=O)O)C(=O)N[C@@H](CO)C(=O)N[C@H](C(=O)N[C@@H](C)C(=O)N[C@@H](C)C(=O)N[C@@H](CC(C)C)C(=O)NCC(=O)N[C@@H](CCCNC(=N)N)C(=O)N[C@@H](CC(C)C)C(=O)N[C@@H](CO)C(=O)N[C@@H](CCC(N)=O)C(=O)N[C@@H](CCC(=O)O)C(=O)N[C@@H](CC(C)C)C(=O)N[C@@H](Cc1c[nH]cn1)C(=O)N[C@@H](CCC(=O)O)C(=O)N[C@@H](CC(C)C)C(=O)N[C@@H](CCC(N)=O)C(=O)N[C@H](C(=O)N[C@@H](Cc1ccc(O)cc1)C(=O)N1CCC[C@H]1C(=O)N[C@@H](Cc1c[nH]cn1)C(=O)N[C@H](C(=O)N[C@@H](CCC(=O)O)C(=O)N[C@H](C(=O)NCC(=O)N[C@@H](CO)C(=O)NCC(=O)N[C@H](C(=O)N[C@@H](Cc1ccc(O)cc1)C(N)=O)[C@@H](C)O)[C@@H](C)O)[C@@H](C)O)[C@@H](C)O)[C@@H](C)O

Biological target: T1, human amylin 3(a) receptor (human …)
Assay: cell-based or functional assay

hAmylin-R funct. EC50 (pM), tested with HSA	Binder
86 pM	B1
142 pM	B2
67 pM	B3
546 pM	B4
123 pM	B5
105 pM	B6
212 pM	B7

Biological target: T2, human calcitonin receptor on …
Assay: cell-based or functional assay

hCTR funct. EC50 (pM), tested with HSA	Binder
61 pM	B1
97 pM	B2
36 pM	B3
366 pM	B4
68 pM	B5
54 pM	B6
99 pM	B7
